These results are taken from US7919292B2, “Producing hydrogen by heterologous expression of a type II NAD (P)H dehydrogenase in Chlamydomonas” (Commissariat a l'Energie Atomique, priority 2004, dated 2011).

Where two headings read alike, the source gives them in different places.

As usually defined, the IC50 is the point on the concentration scale where inhibition reaches its midpoint. The low end stands for greater potency, the high end for weaker potency. What is called Km is the substrate concentration at which the rate is half of its maximum.

Series [1] deals with Agrobacterium tumefaciens NDH-II (Agrobacterium fabrum (Agrobacterium tumefaciens), UniProt Q7CY19). The series is described as follows: biochemical.
Method: The activity of the Agrobacterium tumefaciens NDH-II was assayed using membranes from an E. coli strain deficient in NDH-I and NDH-II (ndh::tet; nuoB::nptl).
The cells were then collected by centrifugation (15 min, 3200×g) and washed twice with 10 ml of solution containing 200 mM Tris-Cl, pH 8, 2.5 mM EDTA and 0.2 mM PMSF. They were then ruptured by passing them twice through a French press at the pressure of 16 000 psi.
The membrane fraction was recovered by centrifugation (30 min, 48 500×g) and resuspended in 200 μl of analysis buffer (50 mM of phosphate buffer, pH 7.5, and 150 mM NaCl).
The O2 consumption of the E. coli ANN0222 membranes was measured by means of a Clark electrode (DW2/2, Hansatech, King's Lynn, England). After addition of the purified enzyme, this method made it possible to determine its specific activity. […]
In order to measure only the membrane-linked respiratory oxidase activity, catalase (1000 U/ml) and superoxide dismutase (SOD) (500 U/ml) were added to the reaction mixture. […] The inhibition kinetics were determined in the presence of 200 μM of NADH or of 2 mM of NADPH.
Series [2] concerns E. coli ANN0222 membranes. The series is described as follows: Enzymatic activity of purified NDH-II on bacterial membranes (O2 consumption, Clark electrode). In kind it is biochemical. The settings on record: 25° C.; for Km: physiological pH. As to the method: In the next experiment, the capacity of this enzyme to transport electrons to the respiratory chain of E. coli was determined.

The test system of a further series is Chlamydomonas thylakoids. The series is described as follows: Photo-induced DNP-INT-sensitive oxygen uptake of Chlamydomonas thylakoids (electron transport from NAD(P)H to the photosynthetic chain). In kind it is biochemical, Chlamydomonas reinhardtii. As to the method:
(§1) A culture of 200 ml of Chlamydomonas reinhardtii (wild-type 137c) was sampled in the exponential growth phase (approximately 5×10^6 cells·ml^−1), and then centrifuged (5 min, 1000×g). The cells were washed in 35 mM HEPES-NaOH buffer (pH 7.2), resuspended in 10 ml of lysis buffer (50 mM tricine-NaOH, pH 8, 10 mM NaCl, 5 mM MgCl2, 1% BSA, 1 mM benzamidine and 1 mM PMSF) and stored in the cold and in the dark for the following steps.
The suspension was passed through a French press twice, at 2000 psi. The lysate was first centrifuged (5 min, 4° C., 500×g) in order to remove the unlysed cells, and the thylakoid membranes were then pelleted at 10 000×g for 10 min and resuspended in 250 to 500 μl of analysis buffer (50 mM tricine-NaOH, pH 7.2, 10 mM NaCl and 5 mM MgCl2).
In order to quantify this effect of the Agrobacterium NDH-II on the electron flow from NAD(P)H to the acceptors of PSI, oxygen consumption measurements were carried out in the presence of methyl viologen (an acceptor of PSI), of DCMU (an inhibitor of PSII) and of an NADH (200 μM) or NADPH (2 mM) electron donor.
The Chlamydomonas thylakoids (50 μl, corresponding to 85 μg·ml^−1 of chlorophyll) are placed in a Clark electrode containing 900 μl of analysis buffer (50 mM tricine-NaOH, pH 7.2, 10 mM NaCl and 5 mM MgCl2, 25 μM DCMU, 50 μM methyl viologen, SOD (500 U·ml^−1), catalase (1000 U·ml^−1), 4 μM of myxothiazol and 800 μM of SHAM (salicylhydroxamic acid). The latter two compounds are added in order to inhibit respiratory O2 uptake.
Under these conditions, the fraction of the photo-induced oxygen uptake sensitive to DNP-INT (2-iodo-6-isopropyl-3-methyl-2′,4,4′-trinitrodiphenyl ether; 10 μM), an inhibitor of cytochrome b6f, is proportional to the electron transport between the NAD(P)H and the photosynthetic chain.

Series [3] relates to Chlamydomonas reinhardtii plastoquinones. The series is described as follows: Plastoquinone reduction measured by chlorophyll fluorescence on thylakoid membranes. In kind it is biochemical. The settings on record: NDH-II 1.5 μg·ml^−1, 200 μM NADH, anaerobic. As to the method:
The plastoquinone-reducing activity by the Agrobacterium NDH-II was analyzed by measuring chlorophyll fluorescence. In the presence of a weak nonactinic illumination, the measurement of chlorophyll fluorescence provides an indication of the plastoquinone redox state.
as §1
The suspension was passed through a French press twice, at 2000 psi. […]
The photosystem II fluorescence was measured using a modulated light fluorimeter (PAM 101-103, Walz, Effeltrich, Germany).
A nonactinic modulated light (650 nm, 1.6 kHz) was used to determine the level of chlorophyll fluorescence F0. The maximum level of the chlorophyll fluorescence Fm was measured under a saturating flash of 1 second (approximately 1000 μmol photons·m^−2·s^−1). […]

Series [4] relates to E. coli ANN0222 membranes. The series is described as follows: Membrane NADH dehydrogenase activity of E. coli ANN0222 expressing Agtundh2 (O2 uptake). In kind it is biochemical. As to the method: Two batches of E. coli ANN.0222 membrane fractions were prepared, from a culture of the control strain on LB medium and from a culture of the strain having incorporated the plasmid pSDN2Ag6H, cultured on LB medium in the presence of 0.1 mM IPTG. The cultures were carried out until an optical density of 1 at 600 nm was obtained. […] The cells were then ruptured by passing them through a French press twice, at 16 000 psi. The membrane fraction, collected by centrifugation (30 min, 4° C., 48,500×g), was taken up in 200 μl of buffer B (50 mM phosphate buffer, pH 7.5 and 150 mM NaCl).
The results are illustrated by FIG. 10B, which represents the O2 uptake, in the presence of NADH, of E. coli ANN0222 membranes prepared from the reference strain (control) and from the strain expressing Agtundh2.
To determine the catalytic efficiency of Agtundh2 expressed in E. coli, the specific activity was estimated from the amounts determined by Western blotting.
On the basis of the relative intensities of the signals obtained for the purified Agtundh2 protein and for the membrane fractions, the amount of Agtundh2 protein in the experiments illustrated by FIG. 10B was estimated at 0.6 μg protein. The maximum O2 uptakes under these conditions are thus estimated at 13.2/0.6=22 nmol O2 min^−1·μg^−1 protein, i.e. 44 nmol NADH min^−1·μg^−1 protein.

The next series concerns E. coli strain ANN.0222. The series is described as follows: Complementation-growth test of NDH-deficient E. coli. It is filed as cell-based. Particulars: M9 + mannitol. As to the method: The functionality of the Agtundh2 protein in vivo in a heterologous host was tested by determining its capacity to restore the growth of a mutant E. coli strain, ANN.0222, deficient in NDH-1 and in NDH-2. This strain grows normally on LB medium, but is incapable of growing on minimum medium M9 supplemented with mannitol as the sole carbon source.
The E. coli strain ANN.0222 was chemically transformed (CaCl2) with the plasmid pSDN2Ag6H. The transformants were selected on LB agar medium (supplemented with 1% tryptone, 0.5% of yeast extract and 0.5% NaCl, pH 7) containing ampicillin (100 μg/ml). The transformants and the strain of origin were cultured until the middle of the exponential phase at 37° C. in liquid LB medium containing ampicillin (100 μg/ml). The cells were rinsed with sterile M9 medium, supplemented with mannitol as the sole carbon source (1× M9 salts, 2×10^−3 M MgSO4, 10^−4 M CaCl2, 0.4% mannitol). The cells were then diluted in M9 medium/mannitol and inoculated on a solid M9/mannitol/agar medium containing ampicillin and various concentrations of IPTG. The Petri dishes were incubated at 37° C. for 2 days. As a control, the same cells were inoculated in parallel on dishes containing LB agar medium containing ampicillin and various concentrations of IPTG, and then incubated at 37° C. overnight. […]

The nature of series [5]: Activity of wild-type and E201Q modified protein with NADH and NADPH. It is filed as biochemical. Particulars: FIG. 12. As to the method: The affinity of the modified protein for NADH and NADPH was determined.
The results are illustrated in FIG. 12.

Molecule `c1ccc2c(c1)[I+]c1ccccc1-2` [DPI, diphenylene iodonium] returned an IC50 in series [1] of 10 µM.

B1: Agrobacterium NDH-II: type II NAD(P)H dehydrogenase from Agrobacterium tumefaciens, SEQ ID NO: 2, purified with 6His tag (protein, listed as Agrobacterium tumefaciens)
chain: MQEHHVVVVGGGFGGLQLVHGLEGAPVRITLIDRRNHHLFQPLLYQVATTALATSEIAWPIRHLYRDRKEVTTLLAEVTGVDRAARTVQLNSGQVIGFDTLVLATGARHAYFGHDEWERSAPGLKTLEDATTIRRRLLLAFERAELATSEEERQALLTFVIIGAGPTGVEMAGMIAELAHRALPAEFRNVDTRKTRVLLVEAGPRVLPVFTEDLSTYAKEALEKLGVEVLLGTPVTACTDEGVTVGETYYPCRTVVWAAGVQASPAAKWLNAAGDRAGRVIVGPQLHLEDDADIFVIGDTAAVNQENGKPVPGIAPAAKQQGAYVAKVIKARLEGKPIPAPFRYSHQGNLATIGKRAAVIDFGRFKLKGVLAWWIWGLAHIYFLIGTRSRLAVAWSWLWIYLSGQHSARLITQKETLKDEA
modifications: 6His tag
Consider B1, for which the Km in series [2] (read-out: Km for NADH) was found to be 10 µM; in series [2] (read-out: Km for NADPH) it was 50 µM. The “maximum activity (Vmax)” value in series [2] (purified enzyme plus E. coli ANN0222 membranes, pH 7.5) is 5 μmol O2·min^−1·mg^−1 protein. Besides, the “electron transport, NADH as donor” value in the series with Chlamydomonas thylakoids (1.5 μg purified NDH-II added, NADH 200 μM, without enzyme 21) is listed as 67 nmol·min^−1·mg^−1 chlorophyll. The “electron transport, NADPH as donor” value in the series on Chlamydomonas thylakoids (1.5 μg purified NDH-II added, NADPH 2 mM, without enzyme 20) is recorded as 45 nmol·min^−1·mg^−1 chlorophyll. The “stimulation factor of electron transport, NADH” value with Chlamydomonas thylakoids (NADH to thylakoid plastoquinones) is “approximately 3”. Further, the “stimulation factor of electron transport, NADPH” value with Chlamydomonas thylakoids (NADPH to thylakoid plastoquinones) was “approximately 2”. For the same molecule, the “increase in chlorophyll fluorescence (plastoquinone reduction) versus natural enzyme alone” value in series [3] is “more rapid and more intense”. The “specific activity as NADH” value in series [4] (Agtundh2 expressed in E. coli membranes) is 44 nmol NADH min^−1·μg^−1 protein. Also, the “maximum O2 uptake (specific activity)” value in series [4] (Agtundh2 expressed in E. coli membranes, protein amount estimated by Western blotting at 0.6 μg) was 22 nmol O2 min^−1·μg^−1 protein. For the same molecule, the “O2 uptake of membranes on addition of NADH” value in series [4] (strain transformed with pSDN2Ag6H, 0.1 mM IPTG, control strain none detected) is “considerable O2 uptake”. Moreover, the “growth on minimal medium” value in the series on E. coli strain ANN.0222 (absence of IPTG) is listed as “partial complementation”; in the series with E. coli strain ANN.0222 (induction with 0.1 mM IPTG), “restored”. Also, the “activity with 200 μM NADH compared with 200 μM NADPH” value in series [5] was “clearly greater activity with 200 μM NADH”.
